Measured values as given in patent US20250262210A1 (TRUSTEES OF COLUMBIA UNIVERSITY IN THE CITY OF NEW YORK, published 2025).

Tests used:
Test in all cases: IP/MS, LZTR1 wild type-FLAG, U87
[1] = biological target: TTC27 (human, UniProt Q6P3X3 1-843)
In short: (§1)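 Read-out: spectral counts from LC-MS/MS (Orbitrap Fusion) after MaxQuant identification. Variable modifications were Met oxidation, protein N-terminal acetylation and N/Q deamidation.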

[2] = biological target: T1, GTF3C2 (human, UniProt Q8WUA4 1-911, limits assumed)
T1 sequence (looked up): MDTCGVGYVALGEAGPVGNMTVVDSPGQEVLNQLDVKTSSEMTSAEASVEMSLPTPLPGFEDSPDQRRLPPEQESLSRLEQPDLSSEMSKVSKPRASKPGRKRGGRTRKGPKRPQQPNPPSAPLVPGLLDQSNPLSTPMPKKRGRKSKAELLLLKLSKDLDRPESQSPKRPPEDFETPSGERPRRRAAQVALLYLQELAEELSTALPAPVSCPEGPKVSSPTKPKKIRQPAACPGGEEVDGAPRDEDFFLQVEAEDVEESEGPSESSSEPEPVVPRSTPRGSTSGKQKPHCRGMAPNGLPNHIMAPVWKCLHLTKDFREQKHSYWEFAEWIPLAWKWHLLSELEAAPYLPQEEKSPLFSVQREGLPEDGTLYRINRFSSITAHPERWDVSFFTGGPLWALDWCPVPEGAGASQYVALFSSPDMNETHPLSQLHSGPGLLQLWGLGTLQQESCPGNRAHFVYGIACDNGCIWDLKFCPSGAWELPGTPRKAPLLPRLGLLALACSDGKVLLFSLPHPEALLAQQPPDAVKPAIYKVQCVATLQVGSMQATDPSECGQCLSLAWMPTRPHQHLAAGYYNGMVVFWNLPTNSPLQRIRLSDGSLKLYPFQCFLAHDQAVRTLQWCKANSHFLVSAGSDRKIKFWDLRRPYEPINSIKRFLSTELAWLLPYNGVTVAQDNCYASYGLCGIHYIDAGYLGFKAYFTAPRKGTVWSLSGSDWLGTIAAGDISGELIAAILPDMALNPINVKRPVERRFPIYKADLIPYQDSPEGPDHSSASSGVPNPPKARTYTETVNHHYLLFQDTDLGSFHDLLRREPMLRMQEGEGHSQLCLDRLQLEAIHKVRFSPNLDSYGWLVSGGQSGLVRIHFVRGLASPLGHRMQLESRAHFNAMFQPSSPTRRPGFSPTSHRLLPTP
In short: as §1

[3] = biological target: T2, LAMB3 (human, UniProt Q13751 18-1172)
T2 sequence (looked up): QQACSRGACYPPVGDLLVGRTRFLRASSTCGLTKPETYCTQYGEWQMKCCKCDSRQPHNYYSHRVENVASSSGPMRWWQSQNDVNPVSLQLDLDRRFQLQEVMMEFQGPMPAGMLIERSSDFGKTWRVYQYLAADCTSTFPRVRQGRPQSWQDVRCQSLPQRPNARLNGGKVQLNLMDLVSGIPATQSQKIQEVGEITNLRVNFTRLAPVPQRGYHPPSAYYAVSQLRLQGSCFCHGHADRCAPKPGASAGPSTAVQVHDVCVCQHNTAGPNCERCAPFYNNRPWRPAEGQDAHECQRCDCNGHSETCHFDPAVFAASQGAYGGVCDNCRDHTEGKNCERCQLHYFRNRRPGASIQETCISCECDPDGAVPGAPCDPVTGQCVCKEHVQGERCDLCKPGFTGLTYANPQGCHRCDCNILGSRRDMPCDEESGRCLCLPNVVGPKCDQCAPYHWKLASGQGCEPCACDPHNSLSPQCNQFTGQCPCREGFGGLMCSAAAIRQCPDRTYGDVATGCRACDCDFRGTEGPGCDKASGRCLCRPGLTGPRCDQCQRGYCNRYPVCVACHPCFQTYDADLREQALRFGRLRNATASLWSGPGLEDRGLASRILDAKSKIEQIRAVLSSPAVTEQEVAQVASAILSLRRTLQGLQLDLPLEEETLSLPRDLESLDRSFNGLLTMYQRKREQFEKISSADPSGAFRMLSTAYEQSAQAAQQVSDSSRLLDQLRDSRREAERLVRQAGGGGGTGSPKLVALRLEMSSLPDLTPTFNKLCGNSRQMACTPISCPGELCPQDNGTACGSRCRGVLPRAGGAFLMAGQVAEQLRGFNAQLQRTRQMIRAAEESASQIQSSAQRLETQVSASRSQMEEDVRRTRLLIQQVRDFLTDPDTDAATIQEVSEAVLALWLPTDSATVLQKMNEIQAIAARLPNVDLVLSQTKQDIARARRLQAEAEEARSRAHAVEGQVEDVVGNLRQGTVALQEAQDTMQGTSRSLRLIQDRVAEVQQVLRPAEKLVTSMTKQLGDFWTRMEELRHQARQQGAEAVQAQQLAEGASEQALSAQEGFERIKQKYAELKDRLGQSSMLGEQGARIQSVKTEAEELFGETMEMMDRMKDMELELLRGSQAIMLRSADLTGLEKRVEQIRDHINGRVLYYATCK
In short: as §1

Measured: binding result

B1: LZTR1-FLAG (other, human, UniProt Q8N653 1-840, looked up)
chain: MAGPGSTGGQIGAAALAGGARSKVAPSVDFDHSCSDSVEYLTLNFGPFETVHRWRRLPPCDEFVGARRSKHTVVAYKDAIYVFGGDNGKTMLNDLLRFDVKDCSWCRAFTTGTPPAPRYHHSAVVYGSSMFVFGGYTGDIYSNSNLKNKNDLFEYKFATGQWTEWKIEGRLPVARSAHGATVYSDKLWIFAGYDGNARLNDMWTIGLQDRELTCWEEVAQSGEIPPSCCNFPVAVCRDKMFVFSGQSGAKITNNLFQFEFKDKTWTRIPTEHLLRGSPPPPQRRYGHTMVAFDRHLYVFGGAADNTLPNELHCYDVDFQTWEVVQPSSDSEVGGAEVPERACASEEVPTLTYEERVGFKKSRDVFGLDFGTTSAKQPTQPASELPSGRLFHAAAVISDAMYIFGGTVDNNIRSGEMYRFQFSCYPKCTLHEDYGRLWESRQFCDVEFVLGEKEECVQGHVAIVTARSRWLRRKITQARERLAQKLEQEAAPVPREAPGVAAGGARPPLLHVAIREAEARPFEVLMQFLYTDKIKYPRKGHVEDVLLIMDVYKLALSFQLCRLEQLCRQYIEASVDLQNVLVVCESAARLQLSQLKEHCLNFVVKESHFNQVIMMKEFERLSSPLIVEIVRRKQQPPPRTPLDQPVDIGTSLIQDMKAYLEGAGAEFCDITLLLDGHPRPAHKAILAARSSYFEAMFRSFMPEDGQVNISIGEMVPSRQAFESMLRYIYYGEVNMPPEDSLYLFAAPYYYGFYNNRLQAYCKQNLEMNVTVQNVLQILEAADKTQALDMKRHCLHIIVHQFTKVSKLPTLRSLSQQLLLDIIDSLASHISDKQCAELGADI
notes: Expressed in HEK 293T, HeLa or U87 cells; used as cell lysate; also called LZTR1 wild type-FLAG; LZTR1 WT; not shown: FLAG tag at the C-terminus
binds: [1] | [2] | [3]
